Test results as given in patent US20060252118.

How the values were obtained:
[1] = target: T1, Peptide 3 (phosphotyrosine peptide) H-Glu-Trp-Met-Arg-Glu-Asn-Ala-Glu-pTyr-Leu-Arg-Val-Ala-OH
T1 chain: EWMRENAEYLRVA

[2] = target: T2, Peptide 2 (phosphothreonine peptide) H-Thr-Ala-Asp-Ser-Gln-His-Ser-pThr-Pro-Pro-Lys-Lys-Lys-Arg-Lys-Val-Glu-OH
T2 chain: TADSQHSTPPKKKRKVE

[3] = target: T3, Peptide 1 (phosphoserine peptide) H-Val-Pro-Ile-Pro-Gly-Arg-Phe-Asp-Arg-Arg-Val-pSer-Val-Ala-Ala-Glu-NH2
T3 chain: VPIPGRFDRRVSVAAE

[4] = target: Serine/threonine (Ser/Thr) phosphorylated Myelin Basic Protein substrate (33P labeled)
Sequence of Serine/threonine (Ser/Thr) phosphorylated Myelin Basic Protein substrate (33P labeled) (P02687 whole entry): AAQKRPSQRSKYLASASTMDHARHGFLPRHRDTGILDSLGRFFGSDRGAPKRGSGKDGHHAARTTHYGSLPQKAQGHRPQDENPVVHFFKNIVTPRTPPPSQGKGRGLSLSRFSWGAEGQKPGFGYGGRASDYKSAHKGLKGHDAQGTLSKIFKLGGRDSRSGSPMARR

[5] = target: Tyrosine (Tyr) phosphorylated Myelin Basic Protein substrate (33P labeled)
Sequence of Tyrosine (Tyr) phosphorylated Myelin Basic Protein substrate (33P labeled) (P02687 whole entry): as above

B1: thermolabile Antarctic phosphatase (TAP), truncated, with N-terminal His-tag (expressed from pEGTAP7.4.1) (protein)
chain: MHHHHHHMKLKKIVFTLIALGLFSCKTTSVLVKNEPQLKTPKNVILLISDGAGLSQISSTFYFKEGTPNYTQFKNIGLIKTSSSREDVTDSASGATAFSCGIKTYNAAIGVADDSTAVKSIVEIAALNNIKTGVVATSSITHATPASFYAHALNRGLEEEIAMDMTESDLDFFAGGGLNYFTKRKDKKDVLAILKGNQFTINTTGLTDFSSIASNRKMGFLLADEAMPTMEKGRGNFLSAATDLAIQFLSKDNSAFFIMSEGSQIDWGGHANNASYLISEINDFDDAIGTALAFAKKDGNTLVIVTSDHETGGFTLAAKKNKREDGSEYSDYTEIGPTFSTGGHSATLIPVFAYGPGSEEFIGIYENNEIFHKILKVTKWNQ
Question: With B1 as the protein, how does the “units of enzyme required to remove all the phosphates from 5 µg of the peptide in 10 mins (Cap-HPLC)” value [1] read?
Answer: only 0.02 units of enzyme being required to remove all the phosphates from 5 µg of the peptide in 10 mins

Question: And the “units of TAP required to completely remove the phosphates from 5 µg of the peptide in 10 mins (Cap-HPLC)” value [2]?
Answer: 2.5 units and 10 units of TAP were required to completely remove the phosphates from the phospho-serine and phospho-threonine peptides respectively

Question: And the “units of TAP required to completely remove the phosphates from 5 µg of the peptide in 10 mins (Cap-HPLC)” value [3]?
Answer: 2.5 units and 10 units of TAP were required to completely remove the phosphates from the phospho-serine and phospho-threonine peptides respectively

Question: And the “specific activity (release of 33P from phosphorylated MyBP, TCA-soluble counts)” value [4]?
Answer: 1910 nmol/min/mg

Question: And the “specific activity (release of 33P from phosphorylated MyBP, TCA-soluble counts)” value [5]?
Answer: also greater than the specific activity for CIAP
